Assay results from patent US20240425601A1 (University of California, published 2024).

Molecular target: cell surface-expressed human αvβ8 (human, UniProt P06756 31-1048; P26012 43-769)
Experiment: cell-based or functional assay

cell surface-expressed human αvβ8, sequence (P06756 31-1048, chain 1 of 2): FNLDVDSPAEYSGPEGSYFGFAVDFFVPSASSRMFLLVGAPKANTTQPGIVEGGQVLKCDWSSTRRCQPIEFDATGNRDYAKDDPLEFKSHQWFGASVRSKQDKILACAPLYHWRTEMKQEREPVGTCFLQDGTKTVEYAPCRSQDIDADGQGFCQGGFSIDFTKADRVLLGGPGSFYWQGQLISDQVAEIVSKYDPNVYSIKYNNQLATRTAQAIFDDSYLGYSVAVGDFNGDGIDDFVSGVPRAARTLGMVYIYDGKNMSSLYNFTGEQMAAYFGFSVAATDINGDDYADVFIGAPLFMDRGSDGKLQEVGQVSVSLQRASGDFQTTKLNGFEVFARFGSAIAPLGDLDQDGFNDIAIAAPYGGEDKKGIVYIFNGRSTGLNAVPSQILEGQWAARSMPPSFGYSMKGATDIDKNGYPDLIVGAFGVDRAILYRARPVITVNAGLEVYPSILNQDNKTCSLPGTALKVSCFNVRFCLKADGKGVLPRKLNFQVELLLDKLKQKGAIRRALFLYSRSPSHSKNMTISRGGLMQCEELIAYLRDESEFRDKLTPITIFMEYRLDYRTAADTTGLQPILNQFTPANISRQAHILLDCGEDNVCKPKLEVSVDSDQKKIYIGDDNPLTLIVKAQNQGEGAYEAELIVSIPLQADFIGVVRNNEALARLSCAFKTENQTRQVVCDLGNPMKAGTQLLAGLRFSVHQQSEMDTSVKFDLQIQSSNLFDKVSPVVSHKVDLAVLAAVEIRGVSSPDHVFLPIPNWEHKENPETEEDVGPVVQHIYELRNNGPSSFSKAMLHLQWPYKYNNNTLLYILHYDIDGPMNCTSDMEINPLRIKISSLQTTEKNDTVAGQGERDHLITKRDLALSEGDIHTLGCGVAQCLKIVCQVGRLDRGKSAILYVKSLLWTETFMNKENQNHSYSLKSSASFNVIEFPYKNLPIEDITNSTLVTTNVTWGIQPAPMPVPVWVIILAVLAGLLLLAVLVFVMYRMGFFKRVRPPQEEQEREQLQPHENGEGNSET
cell surface-expressed human αvβ8, sequence (P26012 43-769, chain 2 of 2): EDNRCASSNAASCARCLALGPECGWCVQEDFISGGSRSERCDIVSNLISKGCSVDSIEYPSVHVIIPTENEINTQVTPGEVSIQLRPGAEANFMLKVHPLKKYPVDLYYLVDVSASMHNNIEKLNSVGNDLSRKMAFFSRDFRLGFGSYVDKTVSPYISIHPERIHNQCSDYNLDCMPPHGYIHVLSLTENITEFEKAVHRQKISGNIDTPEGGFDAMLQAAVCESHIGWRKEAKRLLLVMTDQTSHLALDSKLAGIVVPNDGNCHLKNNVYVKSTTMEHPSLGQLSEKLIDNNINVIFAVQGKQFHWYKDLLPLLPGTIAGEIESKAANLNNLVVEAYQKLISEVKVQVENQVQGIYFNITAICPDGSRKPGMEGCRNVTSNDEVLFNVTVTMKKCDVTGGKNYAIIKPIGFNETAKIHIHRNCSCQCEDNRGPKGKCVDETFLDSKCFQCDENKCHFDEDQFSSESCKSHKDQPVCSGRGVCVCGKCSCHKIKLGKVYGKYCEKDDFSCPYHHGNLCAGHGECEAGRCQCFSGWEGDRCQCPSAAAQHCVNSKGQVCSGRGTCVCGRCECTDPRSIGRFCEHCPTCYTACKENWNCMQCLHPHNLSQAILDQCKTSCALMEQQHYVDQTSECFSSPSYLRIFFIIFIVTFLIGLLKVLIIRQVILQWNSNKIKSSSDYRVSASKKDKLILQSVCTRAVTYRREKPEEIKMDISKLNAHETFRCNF

B1: ADWA16 (antibody, V domains shown)
VH: QVQLQQSGAELAKPGASMKMSCKASGYTFSSYWIYWVKQRPGQGLEWIGYINPTTGYTEYNQKFRDKATLTADKSSNTAYMQLSSLTSEDSAVYYCATEGGNWEDYWGQGTTLTVSS
VL: DIQMTQTTSSLSASLGDRVTISCRASQDISNYLNWYQQKPDGTVKLLIYYTSRLYSGVPSRFSGSGSGTDYSLTISNLEPKDIATYYCQQFSELPRTFGGGTKLEIK
inhibition of adhesion of L229 cells expressing αvβ8 to TGFb1 LAP (potency against ADWA11): > 10 fold
